No end group written: not given here. *: point of attachment. FITC = O=C1OC2(c3ccc(O)cc3Oc3cc(O)ccc32)c2ccc(NC(=S)*)cc21
T1: recombinant full-length human PEX19 (human, UniProt P40855 1-299)
T1 construct: PEX19, human, full length, cloned into pETM11; also called recombinant PEX19
T1 sequence (looked up): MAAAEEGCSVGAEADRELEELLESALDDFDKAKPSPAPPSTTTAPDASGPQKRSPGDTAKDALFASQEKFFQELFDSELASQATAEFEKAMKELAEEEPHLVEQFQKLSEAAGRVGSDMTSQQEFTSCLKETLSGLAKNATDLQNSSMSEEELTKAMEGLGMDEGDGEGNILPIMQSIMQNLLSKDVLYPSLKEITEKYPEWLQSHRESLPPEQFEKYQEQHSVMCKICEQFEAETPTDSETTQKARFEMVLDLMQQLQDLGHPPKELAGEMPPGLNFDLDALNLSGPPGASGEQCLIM

B1: FITC-labelled peptide ACBD5 MUT2 (peptide)
peptide: {FITC}-SPGVLTFAIIWPFIAQWLVYLYYQAAAAKL
notes: the C-terminal asparagine was removed; also called MUT2 peptide; source: synthetic peptide (Genscript)
B2: FITC-labelled peptide ACBD5 WT (peptide)
peptide: {FITC}-SPGVLTFAIIWPFIAQWLVYLYYQRRRRKL
notes: TMD and tail region of ACBD5; the C-terminal asparagine residue was removed to facilitate peptide synthesis; also called ACBD5-TMD-T WT peptide; source: synthetic peptide (Genscript)
B3: FITC-labelled peptide ACBD5 MUT1 (peptide)
peptide: {FITC}-SPGVLTFAIIWPFIAQWLVYLYYQRARAKL
notes: the C-terminal asparagine was removed; also called MUT1 peptide; peptide MUT1; source: synthetic peptide (Genscript)

molecular target: T1, recombinant full-length human PEX19; assay: fluorescence polarisation; fluorescence anisotropy; FITC peptide at 6.7 nM, protein titrated (dilution series, factor 1.5); 25°C; 50 mM Tris-HCl pH 7.5, 250 mM NaCl, 0.5 mM TCEP with 0.67 mg/ml BSA, no detergent; 1:1 hyperbolic fit; conditions: both partners purified

Going from B1 to B2, the Kd falls from 7.7 µM to 0.9 µM (8.6-fold).

B3 gave a Kd of 1.9 µM.

Reference: paper PMC5450235, “Predicting the targeting of tail-anchored proteins to subcellular compartments in mammalian cells” (Journal of Cell Science, 2017)
